Patent publication US20240254246A1 (PROMETHEUS BIOSCIENCES, published 2024)
Numbering of substitutions follows the chain as printed. Read-outs that look alike come from different tables or passages of the source. One block for each binder: values may come before it.

Legend:
[1] = target: T1, recombinant human CD30L (human, UniProt P32971 63-234); assay: ELISA, binding to rhCD30L (OD 450 nm)
T1 construct: Purified recombinant protein of ELISA, BLI, Carterra and KinExA; also called rhCD30L; huCD30L
T1 sequence (looked up): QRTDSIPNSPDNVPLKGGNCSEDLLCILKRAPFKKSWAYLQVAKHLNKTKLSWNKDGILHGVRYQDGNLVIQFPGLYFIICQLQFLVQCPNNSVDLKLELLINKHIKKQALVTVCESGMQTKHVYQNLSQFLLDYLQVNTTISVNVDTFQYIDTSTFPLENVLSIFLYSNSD

[2] = target: T2, human CD30L expressed on B16 cells (human, UniProt P32971 1-234); assay: flow cytometry, binding to B16 cells expressing human CD30L (MFI)
T2 construct: whole, on cells; B16 cell line transfected to express human CD30L; also called B16-huCD30L; B16-rhCD30L
T2 sequence (looked up): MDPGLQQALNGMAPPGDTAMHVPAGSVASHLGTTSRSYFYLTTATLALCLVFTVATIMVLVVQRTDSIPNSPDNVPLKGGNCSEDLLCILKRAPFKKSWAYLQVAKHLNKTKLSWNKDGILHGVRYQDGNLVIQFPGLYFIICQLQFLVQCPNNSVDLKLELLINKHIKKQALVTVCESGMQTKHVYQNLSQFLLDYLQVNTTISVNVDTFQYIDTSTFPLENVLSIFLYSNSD

[3] = target: T1, recombinant human CD30L; assay: ELISA on recombinant protein
[4] = target: T3, recombinant mouse CD30L (mouse, UniProt P32972 68-239); assay: ELISA on recombinant protein
T3 construct: Purified recombinant protein; also called rmCD30L
T3 sequence (looked up): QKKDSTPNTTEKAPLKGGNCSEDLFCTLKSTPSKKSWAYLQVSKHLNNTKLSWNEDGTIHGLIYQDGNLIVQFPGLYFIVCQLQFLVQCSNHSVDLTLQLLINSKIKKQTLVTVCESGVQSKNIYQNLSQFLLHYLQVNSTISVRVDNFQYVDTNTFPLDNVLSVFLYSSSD

[5] = target: T4, recombinant cynomolgus CD30L (cynomolgus, UniProt A0A7N9CVX7 63-234); assay: ELISA on recombinant protein
T4 construct: Purified recombinant protein; also called rcyCD30L; cyno CD30L
T4 sequence: T1 sequence (looked up) with V13I, K16R, I142V, I165V

[6] = target: T2, human CD30L expressed on B16 cells; assay: flow cytometry on B16 cells expressing hCD30L
[7] = target: T1, recombinant human CD30L; assay: recombinant blocking ELISA; competitor CD30
[8] = target: T1, recombinant human CD30L; assay: BLI, CD30 association to CD30L held by captured IgG; competitor rhCD30
Protocol: Briefly, individual anti-human biosensors were loaded with purified IgG (normalized to 10 μg/mL) and a baseline was measured for each biosensor. Biosensors were saturated with biotin and with polyclonal hulgG and a baseline was measured. Loaded biosensors were then allowed to bind CD30L and the association rate was measured for the binding. Biosensors were moved to buffer wells to measure the dissociation rate.

[9] = target: T1, recombinant human CD30L; assay: KinExA, calculated as KD x kon
Protocol: (§1) To more precisely define and compare the binding affinities (dissociation equilibrium constant, KD), the association rate constant (on rate, kₒₙ), and the dissociation rate constant (off rate, koff), the kinetic exclusion assay (KinExA) was performed. KinExA measures the equilibrium binding affinity and kinetics between unmodified binding molecules in solution. For affinity analysis, the equilibrium dissociation constant, KD, is experimentally determined and reflects the strength of the binding interaction. The rate of association, kₒₙ, is also experimentally determined, while the rate of dissociation, koff, is calculated based on the equation: koff=Kd×kₒₙ.

[10] = target: T1, recombinant human CD30L; assay: KinExA, Fab in solution
Description: (§2) For each experiment, CD30L antigen is titrated in a background of the Fab and allowed to reach equilibrium. The solutions are then briefly exposed to the solid phase and a portion of free Fab is captured. The captured Fab is then labeled with a fluorescent secondary molecule. The short contact time with the solid phase is less than the time needed for dissociation of the pre-formed complex in solution, thus competition between the solution and the solid phase titrated binding partner is kinetically excluded.
(§3) The signals generated from the captured Fab, which are directly proportional to the concentration of free Fab in the equilibrated samples, are used to determine the KD value. The KinExA Pro software performs a least squares analysis on the measured data to fit optimal solution for the KD and the activity of the Fab to a curve representative of a 1:1 reversible bi-molecular interaction.

[11] = target: T5, cynomolgus CD30L expressed on HEK293 cells (cynomolgus, UniProt A0A7N9CVX7 1-234); assay: flow cytometry, blocking of CD30-Fc on HEK293-cyCD30L cells; competitor CD30-Fc
T5 construct: whole, on cells; also called HEK293-cyCD30L; HEK-cyCD30L
T5 sequence: T2 sequence (looked up) with A19T, M20T, G32E, L41F, V75I, K78R, I204V, I227V

[12] = target: T1, recombinant human CD30L; assay: ELISA, blocking of CD30-Fc on huCD30L; competitor CD30-Fc
[13] = target: T5, cynomolgus CD30L expressed on HEK293 …; assay: flow cytometry, Cell Binding to HEK293-cyCD30L (MFI)
[14] = target: T1, recombinant human CD30L; assay: ELISA, blocking of CD30-Fc binding to huCD30L (OD 450 nm)
[15] = target: T1, recombinant human CD30L; assay: ELISA, binding to rhCD30L (OD 450 nm); remark: listed apart in the source
[16] = target: T5, cynomolgus CD30L expressed on HEK293 …; assay: flow cytometry, HEK293-cyCD30L/CD30-Fc Neutralization: blocking of CD30-Fc binding to HEK293-cyCD30L cells
[17] = target: T2, human CD30L expressed on B16 cells; assay: flow cytometry, B16-huCD30L/CD30-Fc Neutralization: blocking of CD30-Fc binding to B16-huCD30L cells
[18] = target: T1, recombinant human CD30L; assay: ELISA, Neutralization of CD30-Fc binding to immobilized human CD30L (Absorbance 450 nm)
[19] = target: T2, human CD30L expressed on B16 cells; assay: cell-based or functional assay
[20] = target: T4, recombinant cynomolgus CD30L; assay: ELISA, Neutralization of CD30-Fc binding to immobilized cyno CD30L (Absorbance 450 nm)
[21] = target: T1, recombinant human CD30L; assay: ELISA, Binding to CD30L, immobilized human CD30L (Absorbance 450 nm)
[22] = target: T4, recombinant cynomolgus CD30L; assay: ELISA, binding to purified rcyCD30L
[23] = target: T4, recombinant cynomolgus CD30L; assay: ELISA, Binding to CD30L, immobilized cyno CD30L (Absorbance 450 nm)
[24] = target: T2, human CD30L expressed on B16 cells; assay: flow cytometry, binding to B16-rhCD30L cells
[25] = target: T4, recombinant cynomolgus CD30L; assay: ELISA, blocking of CD30-Fc on rcyCD30L; competitor CD30-Fc
[26] = target: T2, human CD30L expressed on B16 cells; assay: cell-based or functional assay; remark: listed apart in the source
[27] = target: T5, cynomolgus CD30L expressed on HEK293 …; assay: flow cytometry, binding to HEK293-cyCD30L cells
[28] = target: T5, cynomolgus CD30L expressed on HEK293 …; assay: cell-based or functional assay
[29] = target: T2, human CD30L expressed on B16 cells; assay: cell-based or functional assay; remark: listed apart in the source
[30] = target: T1, recombinant human CD30L; assay: ELISA, binding to purified rhCD30L
[31] = target: T2, human CD30L expressed on B16 cells; assay: flow cytometry, blocking of CD30-Fc on B16-huCD30L cells; competitor CD30-Fc
[32] = target: T2, human CD30L expressed on B16 cells; assay: flow cytometry, binding to B16 cells expressing human CD30L (MFI); remark: listed apart in the source
[33] = target: T2, human CD30L expressed on B16 cells; assay: cell-based or functional assay; remark: listed apart in the source
[34] = target: T1, recombinant human CD30L; assay: ELISA, binding to rhCD30L (OD 450 nm); remark: listed apart in the source
[35] = target: T1, recombinant human CD30L; assay: KinExA, calculated as KD x kon; remark: listed apart in the source
Protocol: as §1

[36] = target: T1, recombinant human CD30L; assay: KinExA, Fab in solution; remark: listed apart in the source
Description: as §2, §3

[37] = target: T4, recombinant cynomolgus CD30L; assay: KinExA, calculated as KD x kon
Protocol: as §1
A KD analysis requires immobilization of one interaction partner to a solid phase which is then used as a probe to capture the other interaction partner, the constant binding partner (Fab). For each experiment, CD30L antigen is titrated in a background of the Fab and allowed to reach equilibrium. The solutions are then briefly exposed to the solid phase and a portion of free Fab is captured. The captured Fab is then labeled with a fluorescent secondary molecule. The short contact time with the solid phase is less than the time needed for dissociation of the pre-formed complex in solution, thus competition between the solution and the solid phase titrated binding partner is kinetically excluded.

[38] = target: T4, recombinant cynomolgus CD30L; assay: KinExA, Fab in solution
Description: as §2, §3

B1: anti-CD30L antibody clone 82 (antibody, V domains shown)
VH: EVQLVESGGGLVQPGGSLRLSCAVSGITFSNAWMSWVRQAPGKGLEWVGRIKSKTYGGTTDYAAPVKGRFIISRDDSKDTLYLQMNSLKTEDTAIYYCTTDPWNYVNYNYFMDVWGKGTTVTVSS
VL: DIQMTQSPSSLSASVGDRVTITCRASQDIRNYLAWYQQKPGKITHLLVYAASTLQSGVPSRFSGSGSGTDFTLTINSLQPEDVATYYCQNYFSVPLTFGGGTKVEIK
notes: purified recombinant IgG (held by anti-human biosensors); mouse strain #1
EC50 (read off the curve) [1]: ~0.1 nM
EC50 (read off the curve) [2]: ~3 nM
rhCD30L (+) ELISA [3]: 1.41
rmCD30L (+) ELISA [4]: 0.048
rcyCD30L (+) ELISA [5]: 0.982
hCD30L B16 (+) FLOW [6]: 8.42e+06
IC50 [7]: 3.51 nM
rhCD30L:rhCD30 Blocking [8]: 0.071

B2: Fab of the reference 1 (ref1) anti-CD30L (Fab, V domains shown)
VH: QVQLQESGPGLVKPSETLSLTCTVSGGSISSYIWSWIRQPAGKGLEWIGRIYASGNTNYNPSLKSRVTISVDTSKNQFSLKLSSMTAADTAVYYCARDYRVAGTYYYYYGLDVWGQGTTVTVSS
VL: QSALTQPASVSGSPGQSITISCTGTSSDVGVYDYVSWYQQHPGKAPKLMIYEVSNRPSGVSNRFSGSKSGNTASLTISGLQTEDEADYYCSSYTSRSTWVFGGGTKLTVL
notes: Fab
koff [9]: 0.000353 s⁻¹
Kd [10]: 0.377 nM
kon [10]: 937000 M⁻¹ s⁻¹

B4: anti-CD30L antibody clone 80 (antibody, V domains shown)
VH: EVQLVESGGGLVQPGGSLRLSCEVSGFTFSSYDMHWVRQVTGTGLEWVSSIGIGGDTYYPGSVKGRFTISRENAKNSLYLQMNSLRGGDTGVYYCARGEWDLLWYFMDVWGKGTTVTVSS
VL: DIQMTQSPSSLSASIGDRVTITCRASQGISSWLAWYQQKPGKAPKLLIYAASSLQSGVPSRFSGSGSGTDFTLTISSLQPEDFATYYCQQANSFPLTFGGGTKVEIK
notes: as for B1
EC50 (read off the curve) [32]: ~1 nM
rhCD30L (+) ELISA [3]: 0.941
rmCD30L (+) ELISA [4]: 0.048
rcyCD30L (+) ELISA [5]: 0.475
IC50 (read off the curve), IL-8 release, dual cell assay (B16-huCD30L cells + K299 cells) [33]: ~2 nM
hCD30L B16 (+) FLOW [6]: 8.3e+06
IC50 [7]: 2.74 nM
EC50 (read off the curve) [34]: ~0.2 nM
rhCD30L:rhCD30 Blocking [8]: 0.0635

Now from value to binder:

IC50 [11]: 0.34 nM
IC50 [12]: 1.92 nM
EC50 (read off the curve) [13]: ~0.3 nM
IC50 (read off the curve) [14]: ~2 nM
EC50 (read off the curve) [15]: ~0.1 nM
IC50 (read off the curve) [16]: ~0.3 nM
IC50 (read off the curve) [17]: ~0.4 nM
IC50 (read off the curve) [18]: ~2 nM
IC50 (read off the curve), IL-8 release, Dual Assay K299 + B16-huCD30L [19]: ~1 nM
IC50 (read off the curve) [20]: ~2 nM
EC50 (read off the curve) [21]: ~0.03 nM
EC50 [22]: 0.05 nM
EC50 (read off the curve) [23]: ~0.03 nM
EC50 [24]: 0.64 nM
IC50 [25]: 1.53 nM
IC50 (read off the curve), IL-8 release, dual cell assay (B16-huCD30L cells + K299 cells) [26]: ~1 nM
EC50 [27]: 0.33 nM
Inhibition of IL-8 release in a dual cell assay (HEK293-cyCD30L cells + K299 cells) IC50 [28]: 0.41 nM
Inhibition of IL-8 release in a dual cell assay (B16-huCD30L cells + K299 cells) IC50 [29]: 0.89 nM
EC50 [30]: 0.03 nM
IC50 [31]: 0.67 nM
B3: anti-CD30L antibody clone 2 germlined (antibody, V domains shown)
VH: EVQLVESGGGLVQPGRSLRLSCAASGFNFDDYAMHWVRQAPGKGLEWVSGISWRSGNIGYADSVKGRFTISRDNAKNSLYLQMNSLRAEDTALYYCAKDKGIGFNWNYEGFDYWGQGTLVTVSS
VL: B4 VL with I15V, S31N, W32H, Y36F, L46S, A91Y, N92V, S93T, F94Y
notes: also called germlined clone 2

koff [35]: 0.000141 s⁻¹
Kd [36]: 0.0905 nM
kon [36]: 1.55e+06 M⁻¹ s⁻¹
koff [37]: 0.000378 s⁻¹
Kd [38]: 0.122 nM
kon [38]: 3.1e+06 M⁻¹ s⁻¹
B5: Fab of clone 2 germlined (Fab, V domains shown)
VH: B3 VH
VL: B4 VL with I15V, S31N, W32H, Y36F, L46S, A91Y, N92V, S93T, F94Y
notes: Fab; also called Fab of a representative anti-CD30L, clone 2 germlined
